Results on one substance are retold here after patent US20140335573A1.

This assay addresses native C. thermocellum cellulosome (purified from culture media of C. thermocellum ATCC 27405) (Clostridium thermocellum) (UniProt Q06851). The experiment in a line: cell-based or functional assay.
Sequence of UniProt Q06851 (Q06851 whole entry): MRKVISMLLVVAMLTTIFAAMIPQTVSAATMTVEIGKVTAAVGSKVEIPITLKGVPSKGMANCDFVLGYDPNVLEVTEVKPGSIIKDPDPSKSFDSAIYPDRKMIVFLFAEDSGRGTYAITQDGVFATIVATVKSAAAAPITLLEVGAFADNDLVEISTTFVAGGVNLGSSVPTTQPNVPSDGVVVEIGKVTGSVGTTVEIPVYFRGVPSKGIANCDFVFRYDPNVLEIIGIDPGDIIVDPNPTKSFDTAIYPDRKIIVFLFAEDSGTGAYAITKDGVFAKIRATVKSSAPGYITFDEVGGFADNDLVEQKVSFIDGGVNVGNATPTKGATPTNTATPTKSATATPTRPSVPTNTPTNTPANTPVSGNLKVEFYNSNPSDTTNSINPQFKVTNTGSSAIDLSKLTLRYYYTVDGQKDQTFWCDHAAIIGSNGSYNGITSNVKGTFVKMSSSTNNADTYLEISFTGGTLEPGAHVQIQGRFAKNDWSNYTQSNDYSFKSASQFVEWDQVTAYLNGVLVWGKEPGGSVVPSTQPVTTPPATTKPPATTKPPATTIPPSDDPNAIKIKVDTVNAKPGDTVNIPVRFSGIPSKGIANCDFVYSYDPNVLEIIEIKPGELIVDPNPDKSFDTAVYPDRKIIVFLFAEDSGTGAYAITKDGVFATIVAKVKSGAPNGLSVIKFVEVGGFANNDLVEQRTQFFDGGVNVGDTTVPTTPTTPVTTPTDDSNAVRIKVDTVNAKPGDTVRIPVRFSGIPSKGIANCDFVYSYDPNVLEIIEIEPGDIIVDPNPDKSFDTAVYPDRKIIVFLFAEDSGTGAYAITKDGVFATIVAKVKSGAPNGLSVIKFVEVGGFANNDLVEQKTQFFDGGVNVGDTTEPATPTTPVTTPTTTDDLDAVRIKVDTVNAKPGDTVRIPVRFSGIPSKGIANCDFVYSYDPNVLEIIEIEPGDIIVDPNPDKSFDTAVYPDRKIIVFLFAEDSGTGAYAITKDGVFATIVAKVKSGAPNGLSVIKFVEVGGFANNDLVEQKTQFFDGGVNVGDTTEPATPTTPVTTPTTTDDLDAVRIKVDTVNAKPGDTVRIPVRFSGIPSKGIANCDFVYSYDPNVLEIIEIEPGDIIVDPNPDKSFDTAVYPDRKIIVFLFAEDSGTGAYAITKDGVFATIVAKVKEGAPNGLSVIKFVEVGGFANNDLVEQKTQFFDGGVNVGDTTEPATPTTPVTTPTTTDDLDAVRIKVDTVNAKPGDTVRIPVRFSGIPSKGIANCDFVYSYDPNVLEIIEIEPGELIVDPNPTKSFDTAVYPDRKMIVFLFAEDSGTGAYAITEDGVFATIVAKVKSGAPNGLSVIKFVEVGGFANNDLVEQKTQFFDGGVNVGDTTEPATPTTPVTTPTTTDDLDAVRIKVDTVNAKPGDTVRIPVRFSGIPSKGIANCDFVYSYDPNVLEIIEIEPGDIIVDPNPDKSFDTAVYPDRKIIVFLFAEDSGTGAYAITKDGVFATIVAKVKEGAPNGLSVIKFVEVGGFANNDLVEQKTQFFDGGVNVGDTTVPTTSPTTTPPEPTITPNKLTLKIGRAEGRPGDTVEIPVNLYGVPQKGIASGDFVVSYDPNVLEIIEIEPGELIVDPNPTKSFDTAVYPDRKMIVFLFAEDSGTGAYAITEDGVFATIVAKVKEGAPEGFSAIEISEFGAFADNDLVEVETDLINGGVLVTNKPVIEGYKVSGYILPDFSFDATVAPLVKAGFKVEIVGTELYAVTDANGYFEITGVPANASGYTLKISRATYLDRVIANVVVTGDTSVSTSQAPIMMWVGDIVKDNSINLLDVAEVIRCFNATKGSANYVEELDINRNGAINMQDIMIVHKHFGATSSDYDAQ

In the case of “BglA-CohII (C. thermocellum beta-glucosidase A fused to the type-II cohesin module of Orf2p) (enzyme)”, the hydrolysis of microcrystalline cellulose (soluble reducing sugars), fold over native cellulosome stood at 2.68 fold and the hydrolysis of pre-treated switchgrass (soluble reducing sugars), fold over native cellulosome was found to be 1.86 fold.
